# Experimental data published in the supplement of paper PMC10065799, “High-throughput profiling of sequence recognition by tyrosine kinases and SH2 domains using bacterial peptide display” (eLife, 2023).
# Test system: Fer (mouse)
# Assay: phosphorylation enrichment, bacterial display (enrichment ratio); higher = better substrate or ligand; peptides without Tyr show the background
# 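Further: 11-residue human phosphosite peptides and single-mutation variants displayed on the E. coli surface, counted by deep sequencing, each peptide's frequency after selection divided by its frequency in the unselected input library; frequency after pTyr selection over input frequency; kinase dosed for 20-30% of maximal phosphorylation in three min.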
row,Sequence,phosphorylation enrichment
1,VVAHHYSFAPD [TNS3_Y601_Q600H],0.499
2,VSNFNYFYHRE [KCNA1_Y413],0.404
3,GESKDYALHAG [SVIL_Y185_V189A],0.366
4,EALDFYGEVRI [PTEN_Y155_T160I],1.55
5,ILCTVYAFKMR [GRM3_Y754_T758M],0.553
6,MKGDFYRFLAE [YWHAG_Y131_YF],0.426
7,LITTLYSGFLG [KCNQ1_Y267_I268S],0.824
8,TAALWYIYLHT [ENG_Y612_S615L],0.769
9,ADARMYGVLLW [PLP1_Y207_P211L],0.616
10,KHCEDYVFSFN [DSC1_Y846_C848F_YF],0.562
11,FGLTLYPNSRE [MEP1A_Y472_V469L],0.413
12,VGQRPYQPLPE [REEP3_Y170],0.336
13,DEEPPHRGPFC [SASH1_Y551_Y551H],0.528
14,VNYGAYINDFK [GLB1_Y488],0.402
15,VMLENYSNLVS [ZFP69_Y109],0.556
16,IGLHAYGDQYR [IDH1_Y135_R132L],0.48
17,PARLEYYENEK [IRS1_Y46],0.25

row,Sequence,phosphorylation enrichment
1,RASSVFTRSTG [CCR5_Y339_Y339F],0.736
2,YGLPRYRWLTH [TSPAN12_Y143],0.411
3,TVLGEYASPKG [CYP24A1_Y407_L409S],0.371
4,KSIEEYLKLVG [RASAL2_Y381],0.409
5,ASMAKYYASEI [ACADSB_Y372],0.38
6,PELINYHQHNF [BTK_Y361_S366F],0.736
7,FTRNYYVWAVL [CYBA_Y88_R90W],1.42
8,NHYKIHNLCAE [PTEN_Y68_Y68H],0.463
9,ELQGTYTSLQQ [KIF3C_Y574_R571Q],0.592
10,YISLIYTNYEV [GSTP1_Y109_A114V],5.32
11,WQQQSYLDLGI [CTNNB1_Y30_S33L],0.515
12,WASQRYGRELR [BAD_Y110_A107S],0.332
13,SVTCTYSPAHN [TP53_Y126_L130H],0.799
14,LGGSPYPSVPV [FGFR1_Y701_G703S],0.675
15,ALAHKCHGGGG [HBB_Y146_Y146C],0.458
16,VLNDAYENLTR [SYNE2_Y3255],0.581

# Target: EPHB2 (UniProt P29323)
# Sequence (P29323 whole entry, looked up): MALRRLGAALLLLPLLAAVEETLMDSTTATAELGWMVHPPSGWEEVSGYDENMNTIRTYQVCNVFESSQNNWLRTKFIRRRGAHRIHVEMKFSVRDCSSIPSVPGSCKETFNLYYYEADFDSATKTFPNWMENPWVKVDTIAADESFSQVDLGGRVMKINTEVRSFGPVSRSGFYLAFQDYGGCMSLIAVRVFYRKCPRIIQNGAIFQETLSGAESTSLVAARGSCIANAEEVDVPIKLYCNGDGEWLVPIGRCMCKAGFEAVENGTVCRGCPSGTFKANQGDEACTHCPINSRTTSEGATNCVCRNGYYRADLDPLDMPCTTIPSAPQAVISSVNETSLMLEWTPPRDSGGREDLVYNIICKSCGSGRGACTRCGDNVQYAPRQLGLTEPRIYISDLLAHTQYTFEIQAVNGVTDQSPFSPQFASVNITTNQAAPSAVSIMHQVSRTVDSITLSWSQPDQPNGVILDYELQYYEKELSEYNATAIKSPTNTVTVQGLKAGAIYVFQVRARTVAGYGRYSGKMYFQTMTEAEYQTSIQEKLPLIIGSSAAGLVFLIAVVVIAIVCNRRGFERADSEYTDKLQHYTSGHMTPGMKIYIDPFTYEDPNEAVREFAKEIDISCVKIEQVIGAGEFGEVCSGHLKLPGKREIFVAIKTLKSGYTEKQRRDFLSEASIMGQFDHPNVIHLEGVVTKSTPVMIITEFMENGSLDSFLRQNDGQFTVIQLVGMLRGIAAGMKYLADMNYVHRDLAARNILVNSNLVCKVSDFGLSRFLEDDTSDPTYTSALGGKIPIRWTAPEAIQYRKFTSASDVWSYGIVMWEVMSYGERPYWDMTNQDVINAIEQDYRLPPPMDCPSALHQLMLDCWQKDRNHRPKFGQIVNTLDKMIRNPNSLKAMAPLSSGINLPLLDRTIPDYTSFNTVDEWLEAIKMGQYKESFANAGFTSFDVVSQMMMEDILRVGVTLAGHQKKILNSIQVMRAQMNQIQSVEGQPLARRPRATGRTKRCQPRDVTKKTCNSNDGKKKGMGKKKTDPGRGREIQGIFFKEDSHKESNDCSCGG
# Assay: as above
row,Sequence,phosphorylation enrichment
1,VVAHHYSFAPD [TNS3_Y601_Q600H],0.502
2,VSNFNYFYHRE [KCNA1_Y413],0.549
3,GESKDYALHAG [SVIL_Y185_V189A],0.527
4,EALDFYGEVRI [PTEN_Y155_T160I],0.614
5,ILCTVYAFKMR [GRM3_Y754_T758M],0.568
6,MKGDFYRFLAE [YWHAG_Y131_YF],0.494
7,LITTLYSGFLG [KCNQ1_Y267_I268S],0.611
8,TAALWYIYLHT [ENG_Y612_S615L],0.639
9,ADARMYGVLLW [PLP1_Y207_P211L],0.662
10,KHCEDYVFSFN [DSC1_Y846_C848F_YF],0.739
11,FGLTLYPNSRE [MEP1A_Y472_V469L],0.56
12,VGQRPYQPLPE [REEP3_Y170],0.424
13,DEEPPHRGPFC [SASH1_Y551_Y551H],0.783
14,VNYGAYINDFK [GLB1_Y488],1.22
15,VMLENYSNLVS [ZFP69_Y109],1.24
16,IGLHAYGDQYR [IDH1_Y135_R132L],0.487
17,PARLEYYENEK [IRS1_Y46],0.723

row,Sequence,phosphorylation enrichment
1,RASSVFTRSTG [CCR5_Y339_Y339F],0.468
2,YGLPRYRWLTH [TSPAN12_Y143],0.628
3,TVLGEYASPKG [CYP24A1_Y407_L409S],0.612
4,KSIEEYLKLVG [RASAL2_Y381],0.581
5,ASMAKYYASEI [ACADSB_Y372],0.32
6,PELINYHQHNF [BTK_Y361_S366F],0.826
7,FTRNYYVWAVL [CYBA_Y88_R90W],1.55
8,NHYKIHNLCAE [PTEN_Y68_Y68H],0.614
9,ELQGTYTSLQQ [KIF3C_Y574_R571Q],0.862
10,YISLIYTNYEV [GSTP1_Y109_A114V],1.83
11,WQQQSYLDLGI [CTNNB1_Y30_S33L],0.593
12,WASQRYGRELR [BAD_Y110_A107S],0.538
13,SVTCTYSPAHN [TP53_Y126_L130H],0.705
14,LGGSPYPSVPV [FGFR1_Y701_G703S],0.735
15,ALAHKCHGGGG [HBB_Y146_Y146C],0.397
16,VLNDAYENLTR [SYNE2_Y3255],0.759

# Test system: AncSZ
# Assay: as above
row,Sequence,phosphorylation enrichment
1,VVAHHYSFAPD [TNS3_Y601_Q600H],0.646
2,VSNFNYFYHRE [KCNA1_Y413],1.01
3,GESKDYALHAG [SVIL_Y185_V189A],0.548
4,EALDFYGEVRI [PTEN_Y155_T160I],1.49
5,ILCTVYAFKMR [GRM3_Y754_T758M],1.46
6,MKGDFYRFLAE [YWHAG_Y131_YF],0.803
7,LITTLYSGFLG [KCNQ1_Y267_I268S],1.38
8,TAALWYIYLHT [ENG_Y612_S615L],1.41
9,ADARMYGVLLW [PLP1_Y207_P211L],1.12
10,KHCEDYVFSFN [DSC1_Y846_C848F_YF],1.75
11,FGLTLYPNSRE [MEP1A_Y472_V469L],0.911
12,VGQRPYQPLPE [REEP3_Y170],0.617
13,DEEPPHRGPFC [SASH1_Y551_Y551H],1.01
14,VNYGAYINDFK [GLB1_Y488],0.773
15,VMLENYSNLVS [ZFP69_Y109],0.819
16,IGLHAYGDQYR [IDH1_Y135_R132L],0.681
17,PARLEYYENEK [IRS1_Y46],1.26

row,Sequence,phosphorylation enrichment
1,RASSVFTRSTG [CCR5_Y339_Y339F],0.73
2,YGLPRYRWLTH [TSPAN12_Y143],0.841
3,TVLGEYASPKG [CYP24A1_Y407_L409S],0.733
4,KSIEEYLKLVG [RASAL2_Y381],0.772
5,ASMAKYYASEI [ACADSB_Y372],0.701
6,PELINYHQHNF [BTK_Y361_S366F],1.04
7,FTRNYYVWAVL [CYBA_Y88_R90W],1.6
8,NHYKIHNLCAE [PTEN_Y68_Y68H],0.593
9,ELQGTYTSLQQ [KIF3C_Y574_R571Q],0.984
10,YISLIYTNYEV [GSTP1_Y109_A114V],1.82
11,WQQQSYLDLGI [CTNNB1_Y30_S33L],0.831
12,WASQRYGRELR [BAD_Y110_A107S],0.621
13,SVTCTYSPAHN [TP53_Y126_L130H],1.37
14,LGGSPYPSVPV [FGFR1_Y701_G703S],1.04
15,ALAHKCHGGGG [HBB_Y146_Y146C],0.673
16,VLNDAYENLTR [SYNE2_Y3255],1.08

# Target: Fes (UniProt P07332)
# Sequence (P07332 whole entry, looked up): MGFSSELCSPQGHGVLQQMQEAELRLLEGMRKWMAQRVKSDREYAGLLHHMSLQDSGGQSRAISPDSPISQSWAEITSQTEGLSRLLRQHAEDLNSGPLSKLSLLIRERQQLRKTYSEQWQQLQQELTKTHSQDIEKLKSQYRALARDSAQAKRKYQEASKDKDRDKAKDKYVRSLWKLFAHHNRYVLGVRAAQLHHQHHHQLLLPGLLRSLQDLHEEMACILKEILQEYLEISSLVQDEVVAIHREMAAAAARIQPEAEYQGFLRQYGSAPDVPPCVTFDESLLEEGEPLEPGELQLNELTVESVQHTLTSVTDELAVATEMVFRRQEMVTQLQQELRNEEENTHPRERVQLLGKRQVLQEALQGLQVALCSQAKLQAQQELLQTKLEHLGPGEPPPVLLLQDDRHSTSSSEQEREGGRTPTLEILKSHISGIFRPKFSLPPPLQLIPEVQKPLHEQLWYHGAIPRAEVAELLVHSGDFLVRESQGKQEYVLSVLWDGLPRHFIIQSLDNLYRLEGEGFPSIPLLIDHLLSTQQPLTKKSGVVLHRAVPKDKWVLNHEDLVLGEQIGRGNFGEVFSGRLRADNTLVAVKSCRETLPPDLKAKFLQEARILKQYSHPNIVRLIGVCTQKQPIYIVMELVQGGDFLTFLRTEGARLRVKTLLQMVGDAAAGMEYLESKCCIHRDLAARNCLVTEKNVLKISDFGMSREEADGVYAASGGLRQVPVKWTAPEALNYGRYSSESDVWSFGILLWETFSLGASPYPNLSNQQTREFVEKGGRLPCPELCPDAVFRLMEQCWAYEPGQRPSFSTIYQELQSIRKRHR
# Assay: as above
row,Sequence,phosphorylation enrichment
1,VVAHHYSFAPD [TNS3_Y601_Q600H],0.882
2,VSNFNYFYHRE [KCNA1_Y413],0.999
3,GESKDYALHAG [SVIL_Y185_V189A],0.566
4,EALDFYGEVRI [PTEN_Y155_T160I],1.73
5,ILCTVYAFKMR [GRM3_Y754_T758M],1.47
6,MKGDFYRFLAE [YWHAG_Y131_YF],0.798
7,LITTLYSGFLG [KCNQ1_Y267_I268S],1.08
8,TAALWYIYLHT [ENG_Y612_S615L],1.66
9,ADARMYGVLLW [PLP1_Y207_P211L],1.39
10,KHCEDYVFSFN [DSC1_Y846_C848F_YF],1.21
11,FGLTLYPNSRE [MEP1A_Y472_V469L],1.09
12,VGQRPYQPLPE [REEP3_Y170],0.649
13,DEEPPHRGPFC [SASH1_Y551_Y551H],1.06
14,VNYGAYINDFK [GLB1_Y488],0.86
15,VMLENYSNLVS [ZFP69_Y109],0.781
16,IGLHAYGDQYR [IDH1_Y135_R132L],0.834
17,PARLEYYENEK [IRS1_Y46],1.26

row,Sequence,phosphorylation enrichment
1,RASSVFTRSTG [CCR5_Y339_Y339F],0.732
2,YGLPRYRWLTH [TSPAN12_Y143],0.765
3,TVLGEYASPKG [CYP24A1_Y407_L409S],0.619
4,KSIEEYLKLVG [RASAL2_Y381],0.962
5,ASMAKYYASEI [ACADSB_Y372],0.761
6,PELINYHQHNF [BTK_Y361_S366F],1.25
7,FTRNYYVWAVL [CYBA_Y88_R90W],1.7
8,NHYKIHNLCAE [PTEN_Y68_Y68H],0.823
9,ELQGTYTSLQQ [KIF3C_Y574_R571Q],0.995
10,YISLIYTNYEV [GSTP1_Y109_A114V],1.55
11,WQQQSYLDLGI [CTNNB1_Y30_S33L],0.918
12,WASQRYGRELR [BAD_Y110_A107S],0.84
13,SVTCTYSPAHN [TP53_Y126_L130H],1.59
14,LGGSPYPSVPV [FGFR1_Y701_G703S],1.25
15,ALAHKCHGGGG [HBB_Y146_Y146C],0.755
16,VLNDAYENLTR [SYNE2_Y3255],0.859
